Experimental data as given in US20160327558.

## Human cathepsin B
Probe 5 (FITC-LRSR-AOMK)
  in vitro protease activity measurements (zRR-AMC cleavage): also abrogated cathepsin B activity even though slightly less efficient
z-VRPR-FMK
  in vitro protease activity measurements (zRR-AMC cleavage): also abrogated cathepsin B activity even though slightly less efficient
